Results published in paper PMC6889415, “Global redox proteome and phosphoproteome analysis reveals redox switch in Akt” (Nature Communications, 2019).
Blank lines part the entries; values can stand above or below the binder they belong to.

Legend:
[1] = target: the molecule itself; test: non-reducing SDS-PAGE with immunoblot; adipocytes treated with BCNU or BCNU/AF for 2 or 24 h; washed and scraped in PBS with 100 mM NEM, 1% SDS; non-reducing SDS-PAGE, immunoblot; dimer/monomer ratio measured
[2] = target: T1, peroxiredoxin 2 (mouse (endogenous in 3T3-L1 adipocytes)), Q61171; test: as above; settings: remark: other sources report otherwise
T1 chain: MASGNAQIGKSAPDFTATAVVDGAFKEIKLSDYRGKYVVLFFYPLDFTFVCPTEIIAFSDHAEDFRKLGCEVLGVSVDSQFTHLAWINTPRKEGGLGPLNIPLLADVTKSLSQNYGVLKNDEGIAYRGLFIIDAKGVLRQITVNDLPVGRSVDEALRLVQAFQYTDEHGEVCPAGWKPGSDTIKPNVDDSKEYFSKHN

B1: peroxiredoxin 3 (natural protein, mouse (endogenous in 3T3-L1 adipocytes), UniProt P20108 63-257, looked up)
chain: TPAVTQHAPYFKGTAVVNGEFKELSLDDFKGKYLVLFFYPLDFTFVCPTEIVAFSDKANEFHDVNCEVVAVSVDSHFSHLAWINTPRKNGGLGHMNITLLSDITKQISRDYGVLLESAGIALRGLFIIDPNGVVKHLSVNDLPVGRSVEETLRLVKAFQFVETHGEVCPANWTPESPTIKPSPTASKEYFEKVHQ
notes: peroxiredoxin 3 (Prdx3), mitochondrial, endogenous in 3T3-L1 adipocytes, detected with anti-PRDX3; The dimer seen on the non-reducing gel is held by a disulfide bond formed on oxidation; also called Prdx3; PRDX3; source: endogenous, 3T3-L1 adipocyte lysate
stoichiometry N [1]: 2

stoichiometry N [2]: 2
B2: peroxiredoxin 2, Q61171 1-198 (natural protein)
chain: T1 chain
